Experiments:
[1] = biological target: large (50S) ribosomal subunit from Staphylococcus aureus (S. aureus) (UniProt Q2FW16)
[2] = biological target: large (50S) ribosomal subunit from Staphylococcus aureus (S. aureus) (UniProt Q2FW16); remark: listed apart in the source

UniProt Q2FW16, sequence (Q2FW16 whole entry, looked up): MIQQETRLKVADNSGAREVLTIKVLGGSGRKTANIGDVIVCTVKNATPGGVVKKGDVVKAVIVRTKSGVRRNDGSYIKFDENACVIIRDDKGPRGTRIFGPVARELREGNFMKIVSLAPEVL

Substance	efficiency of translation inhibition in the S. aureus cell-free system at 6 mM Mg2+ (370 mM K+) [1] [%]	Mg2+ concentration at which half of the vacant 70S ribosomes are dissociated into 50S + 30S (sucrose gradient profiles, 2X molar excess of RsfS, 3-5 mM Mg2+) [2] [mM Mg2+]	anti-association activity at 4 mM Mg2+ (relative amount of dissociated 50S + 30S subunits, sucrose gradient profiles) [2] [% activity]	loss of anti-association activity at 4 mM Mg2+ (relative amount of dissociated 50S + 30S subunits, sucrose gradient profiles) (% of activity lost) [2]
Ribosomal silencing factor S (RsfS) from Staphylococcus aureus, wild type (natural protein)	80	5	100	
RsfS E70A mutant from Staphylococcus aureus (natural protein)	70	4.4		20
RsfS Y98A mutant from Staphylococcus aureus (natural protein)	35	3.4		80

Source: paper PMC9503621
